# Test results as given in patent publication US12104181B2, “Compositions and methods for treating viral infections targeting TRIM7” (THE BOARD OF REGENTS OF THE UNIVERSITY OF TEXAS SYSTEM, priority 2021, dated 2024).
# Several values for one entry are separate records, joined by “and”; a condition that tells them apart may be missing. Equal values may be shown once.
# Tested on: coxsackievirus B3 (CVB3-GFP)
# Format: cell-based
# Conditions: HeLa cells, replicate R1; for Percent Infected R1: GFP-positive cells within RFP-positive gate
molecule,measurement,value
"RNF122: human RING type E3 ligase expressed from lentiviral vector (protein, UniProt Q9H9V4 1-155, looked up) RING finger protein 122: MHPFQWCNGCFCGLGLVSTNKSCSMPPISFQDLPLNIYMVIFGTGIFVFMLSLIFCCYFISKLRNQAQSERYGYKEVVLKGDAKKLQLYGQTCAVCLEDFKGKDELGVLPCQHAFHRKCLVKWLEVRCVCPMCNKPIASPSEATQNIGILLDELV",Percent Infected R1,90.3%
same,Z score R1,0.02
"RNF212: human RING type E3 ligase expressed from lentiviral vector (protein, UniProt Q495C1 1-297, looked up) Probable E3 SUMO-protein …: MANWVFCNRCFQPPHRTSCFSLTNCGHVYCDACLGKGKKNECLICKAPCRTVLLSKHTDADIQAFFMSIDSLCKKYSRETSQILEFQEKHRKRLLAFYREKISRLEESLRKSVLQIEQLQSMRSSQQTAFSTIKSSVSTKPHGCLLPPHSSAPDRLESMEVDLSPSPIRKSEIAAGPARISMISPPQDGRMGPHLTASFCFIPWLTLSKPPVPGECVISRGSPCFCIDVCPHWLLLLAFSSGRHGELTNSKTLPIYAEVQRAVLFPFQQAEGTLDTFRTPAVSVVFPLCQFERKKSF",Percent Infected R1,91.1%
same,Z score R1,0.03
"RNF144B: human RING type E3 ligase expressed from lentiviral vector (protein, UniProt Q7Z419 1-303, looked up, lentiviral expression, human RING type E3 ligase expressed from lentiviral vector) E3 ubiquitin-protein ligase …: MGSAGRLHYLAMTAENPTPGDLAPAPLITCKLCLCEQSLDKMTTLQECQCIFCTACLKQYMQLAIREGCGSPITCPDMVCLNHGTLQEAEIACLVPVDQFQLYQRLKFEREVHLDPYRTWCPVADCQTVCPVASSDPGQPVLVECPSCHLKFCSCCKDAWHAEVSCRDSQPIVLPTEHRALFGTDAEAPIKQCPVCRVYIERNEGCAQMMCKNCKHTFCWYCLQNLDNDIFLRHYDKGPCRNKLGHSRASVMWNRTQVVGILVGLGIIALVTSPLLLLASPCIICCVCKSCRGKKKKHDPSTT",Percent Infected R1,93.9%
same,Z score R1,0.07
"RNF139: human RING type E3 ligase expressed from lentiviral vector (protein, UniProt Q8WU17 2-664, looked up) E3 ubiquitin-protein ligase …: AAVGPPQQQVRMAHQQVWAALEVALRVPCLYIIDAIFNSYPDSSQSRFCIVLQIFLRLFGVFASSIVLILSQRSLFKFYTYSSAFLLAATSVLVNYYASLHIDFYGAYNTSAFGIELLPRKGPSLWMALIVLQLTFGIGYVTLLQIHSIYSQLIILDLLVPVIGLITELPLHIRETLLFTSSLILTLNTVFVLAVKLKWFYYSTRYVYLLVRHMYRIYGLQLLMEDTWKRIRFPDILRVFWLTRVTAQATVLMYILRMANETDSFFISWDDFWDLICNLIISGCDSTLTVLGMSAVISSVAHYLGLGILAFIGSTEEDDRRLGFVAPVLFFILALQTGLSGLRPEERLIRLSRNMCLLLTAVLHFIHGMTDPVLMSLSASHVSSFRRHFPVLFVSACLFILPVLLSYVLWHHYALNTWLFAVTAFCVELCLKVIVSLTVYTLFMIDGYYNVLWEKLDDYVYYVRSTGSIIEFIFGVVMFGNGAYTMMFESGSKIRAFMMCLHAYFNIYLQAKNGWKTFMNRRTAVKKINSLPEIKGSRLQEINDVCAICYHEFTTSARITPCNHYFHALCLRKWLYIQDTCPMCHQKVYIEDDIKDNSNVSNNNGFIPPNETPEEAVREAAAESDRELNEDDSTDCDDDVQRERNGVIQHTGAAAEEFNDDTD",Percent Infected R1,77.5%
same,Z score R1,−0.14
"TRIM74: human RING type E3 ligase expressed from lentiviral vector (protein, UniProt Q86UV6 1-250, looked up, lentiviral expression, human RING type E3 ligase expressed from lentiviral vector) Tripartite motif-containing …: MAWQVSLLELEDWLQCPICLEVFKESLMLQCGHSYCKGCLVSLSYHLDTKVRCPMCWQVVDGSSSLPNVSLAWVIEALRLPGDPEPKVCVHHRNPLSLFCEKDQELICGLCGLLGSHQHHPVTPVSTVCSRMKEELAALFSELKQEQKKVDELIAKLVKNRTRIVNESDVFSWVIRREFQELRHPVDEEKARCLEGIGGHTRGLVASLDMQLEQAQGTRERLAQAECVLEQFGNEDHHEFIWKFHSMASR",Percent Infected R1,71.6%
same,Z score R1,−0.216
"TRIM72: human RING type E3 ligase expressed from lentiviral vector; listed twice (protein, UniProt Q6ZMU5 1-477, looked up) Tripartite motif-containing …: MSAAPGLLHQELSCPLCLQLFDAPVTAECGHSFCRACLGRVAGEPAADGTVLCPCCQAPTRPQALSTNLQLARLVEGLAQVPQGHCEEHLDPLSIYCEQDRALVCGVCASLGSHRGHRLLPAAEAHARLKTQLPQQKLQLQEACMRKEKSVAVLEHQLVEVEETVRQFRGAVGEQLGKMRVFLAALEGSLDREAERVRGEAGVALRRELGSLNSYLEQLRQMEKVLEEVADKPQTEFLMKYCLVTSRLQKILAESPPPARLDIQLPIISDDFKFQVWRKMFRALMPALEELTFDPSSAHPSLVVSSSGRRVECSEQKAPPAGEDPRQFDKAVAVVAHQQLSEGEHYWEVDVGDKPRWALGVIAAEAPRRGRLHAVPSQGLWLLGLREGKILEAHVEAKEPRALRSPERRPTRIGLYLSFGDGVLSFYDASDADALVPLFAFHERLPRPVYPFFDVCWHDKGKNAQPLLLVGPEGAEA",Percent Infected R1,60.2% and 88.1%
same,Z score R1,−0.361 and −0.01
"TRIML1: human RING type E3 ligase expressed from lentiviral vector (protein, UniProt Q8N9V2 1-468, looked up) Probable E3 ubiquitin-protein …: MSTADLMENLREELTCFICLDYFSSPVTTECGHSFCLVCLLRSWEEHNTPLSCPECWRTLEGPHFQSNERLGRLASIARQLRSQVLQSEDEQGSYGRMPTTAKALSDDEQGGSAFVAQSHGANRVHLSSEAEEHHREKLQEILNLLRVRRKEAQAVLTHEKERVKLCQEETKTCKQVVVSEYMKMHQFLKEEEQLQLQLLEQEEKENMRKLRNNEIKLTQQIRSLSKMIAQIESSSQSSAFESLEEVRGALERSEPLLLQCPEATTTELSLCRITGMKEMLRKFSTEITLDPATANAYLVLSEDLKSVKYGGSRQQLPDNPERFDQSATVLGTQIFTSGRHYWEVEVGNKTEWEVGICKDSVSRKGNLPKPPGDLFSLIGLKIGDDYSLWVSSPLKGQHVREPVCKVGVFLDYESGHIAFYNGTDESLIYSFPQASFQEALRPIFSPCLPNEGTNTDPLTICSLNSHV",Percent Infected R1,77.6%
same,Z score R1,−0.14
"RNF111: human RING type E3 ligase expressed from lentiviral vector (protein, UniProt Q6ZNA4 1-994, looked up) E3 ubiquitin-protein ligase …: MSQWTPEYNELYTLKVDMKSEIPSDAPKTQESLKGILLHPEPIGAAKSFPAGVEMINSKVGNEFSHLCDDSQKQEKEMNGNQQEQEKSLVVRKKRKSQQAGPSYVQNCVKENQGILGLRQHLGTPSDEDNDSSFSDCLSSPSSSLHFGDSDTVTSDEDKEVSVRHSQTILNAKSRSHSARSHKWPRTETESVSGLLMKRPCLHGSSLRRLPCRKRFVKNNSSQRTQKQKERILMQRKKREVLARRKYALLPSSSSSSENDLSSESSSSSSTEGEEDLFVSASENHQNNPAVPSGSIDEDVVVIEASSTPQVTANEEINVTSTDSEVEIVTVGESYRSRSTLGHSRSHWSQGSSSHASRPQEPRNRSRISTVIQPLRQNAAEVVDLTVDEDEPTVVPTTSARMESQATSASINNSNPSTSEQASDTASAVTSSQPSTVSETSATLTSNSTTGTSIGDDSRRTTSSAVTETGPPAMPRLPSCCPQHSPCGGSSQNHHALGHPHTSCFQQHGHHFQHHHHHHHTPHPAVPVSPSFSDPACPVERPPQVQAPCGANSSSGTSYHEQQALPVDLSNSGIRSHGSGSFHGASAFDPCCPVSSSRAAIFGHQAAAAAPSQPLSSIDGYGSSMVAQPQPQPPPQPSLSSCRHYMPPPYASLTRPLHHQASACPHSHGNPPPQTQPPPQVDYVIPHPVHAFHSQISSHATSHPVAPPPPTHLASTAAPIPQHLPPTHQPISHHIPATAPPAQRLHPHEVMQRMEVQRRRMMQHPTRAHERPPPHPHRMHPNYGHGHHIHVPQTMSSHPRQAPERSAWELGIEAGVTAATYTPGALHPHLAHYHAPPRLHHLQLGALPLMVPDMAGYPHIRYISSGLDGTSFRGPFRGNFEELIHLEERLGNVNRGASQGTIERCTYPHKYKKVTTDWFSQRKLHCKQDGEEGTEEDTEEKCTICLSILEEGEDVRRLPCMHLFHQVCVDQWLITNKKCPICRVDIEAQLPSES",Percent Infected R1,84.2%
same,Z score R1,−0.06
"RNF25: human RING type E3 ligase expressed from lentiviral vector; listed twice (protein, UniProt Q96BH1 1-459, looked up, lentiviral expression) E3 ubiquitin-protein ligase …: MAASASAAAGEEDWVLPSEVEVLESIYLDELQVIKGNGRTSPWEIYITLHPATAEDQDSQYVCFTLVLQVPAEYPHEVPQISIRNPRGLSDEQIHTILQVLGHVAKAGLGTAMLYELIEKGKEILTDNNIPHGQCVICLYGFQEKEAFTKTPCYHYFHCHCLARYIQHMEQELKAQGQEQEQERQHATTKQKAVGVQCPVCREPLVYDLASLKAAPEPQQPMELYQPSAESLRQQEERKRLYQRQQERGGIIDLEAERNRYFISLQQPPAPAEPESAVDVSKGSQPPSTLAAELSTSPAVQSTLPPPLPVATQHICEKIPGTRSNQQRLGETQKAMLDPPKPSRGPWRQPERRHPKGGECHAPKGTRDTQELPPPEGPLKEPMDLKPEPHSQGVEGPPQEKGPGSWQGPPPRRTRDCVRWERSKGRTPGSSYPRLPRGQGAYRPGTRRESLGLESKDGS",Percent Infected R1,90.6% and 89.2%
same,Z score R1,0.03 and 0.01
"TRIM75: human RING type E3 ligase expressed from lentiviral vector; listed twice (protein, UniProt A6NK02 1-468, looked up) Tripartite motif-containing …: MAVAAALTGLQAEAKCSICLDYLSDPVTIECGHNFCRSCIQQSWLDLQELFPCPVCRHQCQEGHFRSNTQLGRMIEIAKLLQSTKSNKRKQEETTLCEKHNQPLSVFCKEDLMVLCPLCTQPPDHQGHHVRPIEKAAIHYRKRFCSYIQPLKKQLADLQKLISTQSKKPLELREMVENQRQELSSEFEHLNQFLDREQQAVLSRLAEEEKDNQQKLSANITAFSNYSATLKSQLSKVVELSELSELELLSQIKIFYESENESSPSIFSIHLKRDGCSFPPQYSALQRIIKKFKVEIILDPETAHPNLIVSEDKKRVRFTKRKQKVPGFPKRFTVKPVVLGFPYFHSGRHFWEIEVGDKSEWAIGICKDSLPTKARRPSSAQQECWRIELQDDGYHAPGAFPTPLLLEVKARAIGIFLDYEMGEISFYNMAEKSHICTFTDTFTGPLRPYFYVGPDSQPLRICTGTVCE",Percent Infected R1,66.8% and 89.7%
same,Z score R1,−0.277 and 0.01
